One assay concerns the target T1, human CD4 (human, UniProt P01730 26-390, limits assumed).
T1 construct: also called human CD4 protein
Kind of assay: ELISA on plate-coated human CD4, OD450. The protocol:
Cross-reactivity to human CD4 was measured by ELISA. Plates were coated with human CD4 at 1μg/mL overnight at 4° C. After blocking and washing, 1 μg/mL of LAG-3 antibodies were added to the plates and incubated at room temperature for 1 h. The plates were then washed and subsequently incubated with corresponding secondary antibody for 45 min. After washing, TMB substrate was added and the color reaction was stopped by 2 M HCl. The absorbance at 450 nm was read using a microplate reader.
Background: An ELISA detects its analyte on a solid surface through an enzyme-linked reagent.

The target of assay [1] is T2, mFc-tagged LAG-3 protein (human, UniProt P18627 30-450).
T2 construct: also called human LAG-3 ECD with mouse Fc tag
T2 sequence: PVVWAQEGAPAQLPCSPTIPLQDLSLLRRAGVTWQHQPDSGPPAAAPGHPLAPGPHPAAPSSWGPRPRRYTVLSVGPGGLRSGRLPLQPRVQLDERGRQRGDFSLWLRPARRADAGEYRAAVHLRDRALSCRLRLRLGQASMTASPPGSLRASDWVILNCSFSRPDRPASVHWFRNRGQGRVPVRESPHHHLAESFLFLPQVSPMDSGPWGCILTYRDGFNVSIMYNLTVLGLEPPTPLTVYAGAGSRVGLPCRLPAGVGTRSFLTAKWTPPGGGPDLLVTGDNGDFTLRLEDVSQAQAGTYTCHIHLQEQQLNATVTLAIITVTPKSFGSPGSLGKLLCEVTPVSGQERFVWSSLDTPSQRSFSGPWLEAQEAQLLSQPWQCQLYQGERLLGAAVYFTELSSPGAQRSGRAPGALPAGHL
Kind of assay: FACS competition: blocks mFc-tagged LAG-3 binding to MHC-II on Raji cells. The protocol:
Antibodies were serially diluted in 1% BSA-PBS and incubated with mFc-tagged LAG-3 protein at 4° C. for 30 min. The mixture was transferred into the 96-well plates seeded with Raji cells. Goat anti-mouse IgG Fc-PE antibody was used to detect the binding of LAG-3 protein to Raji cells. The MFI was evaluated by flow cytometry and analyzed by the software FlowJo (version 7.6.1).

Assay [2] addresses T3, full-length human LAG-3 on cells (human, UniProt P18627 23-525).
T3 construct: Expressed on Flp-In-293, CHO or 293F transfectants; also called hPro1.FL; cell surface human LAG-3
T3 sequence: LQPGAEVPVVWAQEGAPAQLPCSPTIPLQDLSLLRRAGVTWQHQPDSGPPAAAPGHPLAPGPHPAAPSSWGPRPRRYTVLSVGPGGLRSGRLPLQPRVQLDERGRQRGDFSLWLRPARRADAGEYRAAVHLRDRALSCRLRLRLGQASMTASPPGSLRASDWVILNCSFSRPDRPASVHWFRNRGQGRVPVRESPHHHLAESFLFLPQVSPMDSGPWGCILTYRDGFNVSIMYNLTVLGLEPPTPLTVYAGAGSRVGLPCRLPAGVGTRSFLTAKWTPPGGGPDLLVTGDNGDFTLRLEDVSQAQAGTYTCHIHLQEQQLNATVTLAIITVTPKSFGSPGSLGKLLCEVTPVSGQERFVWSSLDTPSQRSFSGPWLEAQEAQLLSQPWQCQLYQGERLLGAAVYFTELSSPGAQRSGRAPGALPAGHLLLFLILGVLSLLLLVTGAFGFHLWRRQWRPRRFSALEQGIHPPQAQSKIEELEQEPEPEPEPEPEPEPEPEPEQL
Kind of assay: FACS on human LAG-3 transfectant cells after incubation of the antibody in human serum at 37 C, PE-labeled goat anti-human IgG, MFI. The protocol:
The lead Abs were incubated in freshly isolated human serum (serum content>95%) at 37° C. On indicated time points, an aliquot of serum treated sample was removed from the incubator and snap frozen in liquid N₂, and then stored at −80° C. until ready for test. The samples were quickly thawed immediately prior to the stability test. Human LAG-3 transfectant cells were incubated with various concentrations of lead antibodies at 4° C. for 1 hour. PE-labeled goat anti-human IgG was used to detect the binding of lead antibodies onto the cells. MFI of the cells was measured by a flow cytometer (BD FACSCanto II) and analyzed by FlowJo.

In assay [3] the target is T2, mFc-tagged LAG-3 protein. Kind of assay: ELISA competition: blocks mFc-tagged LAG-3 binding to coated LSECtin. The protocol:
(§1) 96-well plates were coated with human LSECtin or Galectin-3 at 0.5 μg/mL overnight at 4° C., respectively. Antibodies were serially diluted in 1% BSA-PBS and mixed with mFc-tagged LAG-3 protein. After blocking and washing, the mixture was transferred to the plates and incubated at room temperature for 1 h. The plates were then washed and subsequently incubated with corresponding secondary antibody for 60 min. After washing, TMB substrate was added and the color reaction was stopped by 2M HCl. The absorbance at 450 nm was read using a microplate reader.

Assay [4] concerns the target T3, full-length human LAG-3 on cells. Kind of assay: cell-based or functional assay.
Assay [5] has as its target T2, mFc-tagged LAG-3 protein. Kind of assay: ELISA competition: blocks mFc-tagged LAG-3 binding to coated Galectin-3. The protocol:
as §1

Assay [6] addresses T4, human LAG-3-ECD.D12.mFc mutant D143A (human, UniProt P18627 37-252).
T4 construct: Alanine scanning mutant; construct limits as for m26
T4 chain: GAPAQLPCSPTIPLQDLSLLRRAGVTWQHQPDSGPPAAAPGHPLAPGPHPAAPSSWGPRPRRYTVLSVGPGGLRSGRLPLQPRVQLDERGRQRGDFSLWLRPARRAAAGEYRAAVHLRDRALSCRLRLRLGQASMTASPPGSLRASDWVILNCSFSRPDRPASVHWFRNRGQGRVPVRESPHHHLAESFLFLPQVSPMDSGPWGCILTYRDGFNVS
Kind of assay: ELISA, antibody coated, LAG-3 D12.mFc mutant in supernatant, normalised to control mutants. The protocol:
For ELISA binding assay, the antibody 1.53.3-uAb-IgG4k or 3.40.19-uAb-hIgG4L (2 μg/mL) was coated in plates. After interacting with the supernatant that contains quantified LAG-3 mutants or human LAG-3-ECD.D12.mFc protein, HRP conjugated anti-mFc antibody (1:5000; Bethyl, USA) was added as a detection antibody. Absorbance was normalized according to the average absorbance of control mutants. After setting an additional cutoff to the binding fold change (<0.75), the final determined epitope residues were identified.

B1: 3.40.19-uAb-IgG4L (antibody, V domains shown)
VH: QLQLQESGPGLVKPSETLSLTCTVSGDSISSTSYYWGWIRQPPGKGLEWIGSFYYSGSTYYNPSLKSRVTISVDTSKNQFSLKLNSVTAADTAVYYCARMQLWSYDVDVWGQGTTVTVSS
VL: QSALTQPASVSGSPGQSITISCTGTSSDVGGYDYVAWYQQHPGKVPKLMIYDVSERPSGVSNRFSGSKSGNTASLTISGLQAEDEADYYCSSYTSTTTLVVFGGGTKLSVL
notes: Fully human antibody from OMT rats; IgG4 lambda by its name; also called 3.40.19-uAb-hIgG4L
One may read the EC50 as the concentration giving half of the maximal effect. A high value points to a need for much substance. As usually defined, the EC50 (read off the curve) is the midpoint of the concentration-response curve. As for B1, the binding result in the assay with human CD4 is given as “no binding (tested: 66.7 nM)”. Further, the EC50 in the assay with mFc-tagged LAG-3 protein [1] was 670 pM; with mFc-tagged LAG-3 protein [3], 510 pM; with mFc-tagged LAG-3 protein [5] it was 560 pM. Moreover, in assay [2], the concentration for a half-maximal effect (EC50 (read off the curve)) was approximately 800 pM. In addition, the “EC50, IL-2 luciferase reporter gene assay (Jurkat cells expressing human LAG-3 with Raji cells and SEE)” value in assay [4] stood at 210 pM. In addition, the “Fold Change” value in assay [6] was 0.529.

B2: 1.53.3-uAb-IgG4k (antibody, V domains shown)
VH: QVQLQQWGAGLLKPSETLSLTCGVYGGSFSGYYWSWIRQPPGMGLEWIGEINHRGNTNYNPSLKSRVTISEDTSKNQFSLRLSSVTAADTAVYFCTRGEDYSDYDYYGDFWGQGTLVTVSS
VL: EIVLTQSPATLSLSQGERATLSCRASQSISSYLAWYQQKPGQAPRLLIYAASNRATGIPARFSGSGSGTDFTLTISSLEPEDFAIYYCQQRSNWPLTFGGGTKVEIK
notes: Fully human antibody from OMT rats; IgG4 kappa by its name
Regarding B2, the binding result with human CD4 is given as “no binding (tested: 66.7 nM)”. In addition, the 50% effective concentration (EC50) worked out at 800 pM with mFc-tagged LAG-3 protein [1], 710 pM with mFc-tagged LAG-3 protein [3] and 740 pM with mFc-tagged LAG-3 protein [5]. Further, the “EC50 (read off the curve)” value in assay [2] is approximately 3000 pM. Further, the “EC50, IL-2 luciferase reporter gene assay (Jurkat cells expressing human LAG-3 with Raji cells and SEE)” value in assay [4] is 1070 pM. The “Fold Change” value in assay [6] amounted to 0.671.
